Patent US20090042269

Target: reduced RNase (reduced pancreatic RNase)

B1: bovine QSOX1 (quiescin Q6 sulfhydryl oxidase 1) isolated from milk (protein)
chain: SALYSSSDPLTLLRADTVRSTVLGSSSAWAVEFFASWCGHCIAFAPTWKALANDVKDWRPALNLAALDCAEETNSAVCRDFNIPGFPTVRFFKAFSKTGSGTTLSVAGADVQTLRERLIDALESHSDTWPPACPPLEPARLEEITGFFARNNEEYLALIFEKEGSYLGREVTLDLSQHQGIAVRRVLNTERDVVNRFGVTNFPSCYLLSRNGSFSRVPALTESRSFYTTYLRKFSGSTRGAVQTTAAPATTSAVAPTVWKVADRSKIYMADLESALHYILRIEVGKFSVLEGQRLVALKKFMAVLAKYFRGRPLVQNFLHSMNDWLKKQQRKKIPYGFFKNALDSRKEGTVIAEKVNWVGCQGSEPHFRGFPCSLWILFHFLTVQAAQEGVDHPQERAKAQEVLQAIRGYVRFFFGCRECAGHFEQMASGSMHRVGSLNSAVLWFWSSHNKVNARLAGAPSEDPQFPKVQWPPRELCSACHNELRGTPVWDLDNILKFLKTHFSPSNIVLDFPSAGPGPWR
Protein B1 has a KM of 60 µM, a kcat (min^-1), thiols oxidized per minute of 1340 min⁻¹ and a kcat/KM of 374000 M⁻¹ s⁻¹.
